# Measurements: paper PMC9481464
# Target: GTP
# Assay: GTP pull-down, quantified blot
# Details: + Mg2+; co-expressed with HA-RagC S75N; read off a plot
row,response (relative to RagBlong Q127L (set to 1)),Substance
1,1,RagB^long (from UniProt Q5VZM2) Q127L
2,0.9,RagB^long (from UniProt Q5VZM2) Q127L; D96A
3,1.8,RagB^long (from UniProt Q5VZM2) Q127L; L94A
